The test deals with T1, His-tagged human TROP-2 (TROP-2-His), SinoBiologics 10428-H08H (human, UniProt P09758 27-274).
T1 construct: Bought protein; also called TROP-2 His protein; human TROP-2 His antigen; not shown: His tag
T1 sequence: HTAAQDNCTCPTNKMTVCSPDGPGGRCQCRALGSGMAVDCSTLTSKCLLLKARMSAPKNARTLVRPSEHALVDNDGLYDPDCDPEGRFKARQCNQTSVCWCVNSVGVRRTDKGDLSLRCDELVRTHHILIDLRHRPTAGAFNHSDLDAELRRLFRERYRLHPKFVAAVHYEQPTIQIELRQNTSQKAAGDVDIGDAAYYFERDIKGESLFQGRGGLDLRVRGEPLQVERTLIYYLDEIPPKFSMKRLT
Description: indirect ELISA, coated TROP-2 His.

B1: murine monoclonal antibody M1 (antibody, V domains shown)
VH: QVQLQQPGAELVRPGASVKLSCRASGYTFTNYWMNWVKQRPEQGLEWIGRIDPNDSETHYNQKFKDRAILTVDKASNTAYMQLSGLTSEDSAVHYCARSGFGSTYWFFDVWGAGTTVTVSS
VL: DIVMTQSHKFMSTSVGDRVSITCKASQDVSTAVAWYQQKPGQSPKLLIYSASYRYTGVPDRFAGSGYGTDFTFTISSVQTEDLTVYHCQQHYSTPLTFGPGTRLELK
notes: It is called a murine antibody, but the ELISA used a goat-anti-human secondary antibody
As usually defined, the EC50 is the concentration that produces a half-maximal response. Read a low EC50 as greater potency. Consider B1, for which the EC50 turned out to be 0.56 nM.

These data come from patent US20230374149A1 (SHANGHAI HANSOH BIOMEDICAL, published 2023).
